Laboratory results reported in the Immune Epitope Database (IEDB).

How the values were obtained:
HLA-A*26:01 = assay: IEDB peptide-MHC binding, purified MHC/direct/fluorescence; filed as Kd, often an IC50 or EC50 that approximates it; ≥ and ≤ were set here for values at or beyond the usual limits of such assays
HLA-A*26:02 = assay: as above; details: source organism: Bacillus anthracis str. A0465
HLA-B*46:01 = assay: IEDB peptide-MHC binding, purified MHC/competitive/fluorescence; filed as Kd, often an IC50 or EC50 that approximates it; ≥ and ≤ were set here for values at or beyond the usual limits of such assays; details: source organism: Bacillus anthracis str. A2012
HLA-C*15:02 = assay: IEDB peptide-MHC binding, purified MHC/direct/fluorescence; filed as Kd, often an IC50 or EC50 that approximates it; ≥ and ≤ were set here for values at or beyond the usual limits of such assays
HLA-A*02:06 = assay: IEDB peptide-MHC binding, purified MHC/competitive/radioactivity; filed as Kd, often an IC50 or EC50 that approximates it; ≥ and ≤ were set here for values at or beyond the usual limits of such assays; details: source organism: Vaccinia virus WR
HLA-A*02:03 = assay: as above; details: source organism: Vaccinia virus WR
HLA-A*02:02 = assay: as above; details: source organism: Vaccinia virus WR
HLA-A*02:01 [1] = assay: IEDB peptide-MHC binding, purified MHC/competitive/fluorescence; filed as Kd, often an IC50 or EC50 that approximates it; ≥ and ≤ were set here for values at or beyond the usual limits of such assays
HLA-B*48:01 = assay: IEDB peptide-MHC binding, purified MHC/direct/fluorescence; filed as Kd, often an IC50 or EC50 that approximates it; ≥ and ≤ were set here for values at or beyond the usual limits of such assays
HLA-B*73:01 = assay: as above
HLA-B*27:05 [2] = assay: as above
HLA-A*01:01 = assay: as above
HLA-A*03:01 [3] = assay: as above
HLA-B*08:01 = assay: as above
HLA-B*58:01 = assay: as above
HLA-A*02:01 [4] = assay: as above
HLA-B*15:01 = assay: as above
HLA-A*69:01 = assay: as above
HLA-B*07:02 [5] = assay: as above
HLA-B*40:01 = assay: as above
HLA-B*44:02 = assay: as above
HLA-A*31:01 [6] = assay: as above; details: source organism: Brucella abortus
HLA-A*11:01 [7] = assay: as above
HLA-C*08:02 = assay: as above
HLA-A*03:01 [8] = assay: IEDB peptide-MHC binding, purified MHC/competitive/radioactivity; filed as Kd, often an IC50 or EC50 that approximates it; ≥ and ≤ were set here for values at or beyond the usual limits of such assays; details: source organism: Vaccinia virus Copenhagen
HLA-B*53:01 = assay: as above; details: source organism: Vaccinia virus Copenhagen
HLA-B*07:02 [9] = assay: as above; details: source organism: Vaccinia virus Copenhagen
HLA-B*35:01 = assay: as above; details: source organism: Vaccinia virus Copenhagen
HLA-A*33:01 = assay: as above; details: source organism: Vaccinia virus Copenhagen
HLA-B*54:01 = assay: as above; details: source organism: Vaccinia virus Copenhagen
HLA-B*51:01 = assay: as above; details: source organism: Vaccinia virus Copenhagen
HLA-A*68:01 = assay: as above; details: source organism: Vaccinia virus Copenhagen
HLA-A*31:01 [10] = assay: as above; details: source organism: Vaccinia virus Copenhagen
HLA-A*11:01 [11] = assay: as above; details: source organism: Vaccinia virus Copenhagen
HLA-A*30:01 = assay: IEDB peptide-MHC binding, purified MHC/direct/fluorescence; filed as Kd, often an IC50 or EC50 that approximates it; ≥ and ≤ were set here for values at or beyond the usual limits of such assays; details: source organism: Vibrio parahaemolyticus
HLA-A*26:03 = assay: as above; details: source organism: Vibrio parahaemolyticus AQ3810
HLA-C*05:01 = assay: as above; details: source organism: human gammaherpesvirus 4
HLA-C*03:03 = assay: as above; details: source organism: Burkholderia mallei SAVP1
HLA-A*02:12 = assay: IEDB peptide-MHC binding, purified MHC/competitive/fluorescence; filed as Kd, often an IC50 or EC50 that approximates it; ≥ and ≤ were set here for values at or beyond the usual limits of such assays; details: source organism: Burkholderia mallei SAVP1
HLA-B*39:01 = assay: as above; details: source organism: Escherichia coli B171
HLA-B*27:05 [12] = assay: as above; details: source organism: Escherichia coli B171
[13] = source organism: Vaccinia virus Copenhagen
[14] = source organism: Bacillus anthracis
[15] = source organism: Brucella abortus
[16] = source organism: Vibrio parahaemolyticus
[17] = source organism: Listeria monocytogenes
[18] = source organism: Burkholderia mallei SAVP1

Which results are given for FFLFPMAAY?
Kd (HLA-A*26:01; source organism: Bacillus anthracis str. A0465): 0.49 µM; Kd (HLA-A*26:02): 0.002 µM; Kd (HLA-B*46:01): 0.0982 µM

For KLFTHDIML, which Kd (HLA-C*15:02; [13]) is on record?
Its Kd is no less than 20 µM.

What about the Kd (HLA-A*02:06) of the same sequence?
Its Kd is 0.00474 µM.

What about the Kd (HLA-A*02:03) of the same sequence?
Its Kd is 0.00295 µM.

What about the Kd (HLA-A*02:02) of the same sequence?
The Kd was 0.00105 µM.

And the Kd (HLA-A*02:01 [1]; [13])?
Its Kd is 0.0005 µM.

For RRMMMRITE, which Kd (HLA-B*48:01; [14]) is on record?
Its Kd is no less than 20 µM.

And the Kd (HLA-B*73:01; source organism: Bacillus cereus B4264)?
Its Kd is 1.15 µM.

What about the Kd (HLA-B*27:05 [2]; [14]) of the same sequence?
Its Kd is 0.28 µM.

Which results are given for GRKTPLLCF?
Kd (HLA-A*01:01; [15]): ≥ 20 µM; Kd (HLA-A*03:01 [3]; [15]): ≥ 20 µM; Kd (HLA-B*08:01; [15]): ≥ 20 µM; Kd (HLA-B*58:01; [15]): ≥ 20 µM; Kd (HLA-A*02:01 [4]; [15]): ≥ 20 µM; Kd (HLA-B*15:01; [15]): ≥ 20 µM; Kd (HLA-A*26:01; [15]): ≥ 20 µM; Kd (HLA-A*69:01; [15]): ≥ 20 µM; Kd (HLA-B*07:02 [5]; [15]): ≥ 20 µM; Kd (HLA-B*40:01; [15]): ≥ 20 µM; Kd (HLA-B*73:01; source organism: Brucella suis 1330): ≥ 20 µM; Kd (HLA-B*44:02; [15]): ≥ 20 µM; Kd (HLA-B*27:05 [2]; source organism: Brucella melitensis): 0.939 µM; Kd (HLA-A*31:01 [6]): ≥ 20 µM; Kd (HLA-A*11:01 [7]; [15]): ≥ 20 µM

Which results are given for YLDDPDLKY?
Kd (HLA-A*01:01; source organism: Homo sapiens): 0.0668 µM; Kd (HLA-A*02:01 [4]; source organism: Homo sapiens): 3.36 µM; Kd (HLA-B*15:01; source organism: Homo sapiens): 0.437 µM; Kd (HLA-C*08:02; source organism: Xenopus laevis): ≥ 20 µM; Kd (HLA-A*69:01; source organism: Homo sapiens): 18 µM; Kd (HLA-A*11:01 [7]; source organism: Homo sapiens): ≥ 24.4 µM

Which Kd (HLA-C*08:02; source organism: Variola virus) does the source give for ILDDNLYKV here?
Its Kd is 0.379 µM.

What about the Kd (HLA-A*03:01 [8]) of the same sequence?
Its Kd is 12.3 µM.

And the Kd (HLA-B*53:01)?
Its Kd is no less than 78.2 µM.

What about the Kd (HLA-B*07:02 [9]) of the same sequence?
Its Kd is no less than 77.5 µM.

What about the Kd (HLA-B*35:01) of the same sequence?
Its Kd is no less than 77.4 µM.

And the Kd (HLA-A*33:01)?
The Kd was no less than 77.7 µM.

What about the Kd (HLA-B*54:01) of the same sequence?
The Kd was no less than 78.1 µM.

And the Kd (HLA-B*51:01)?
Its Kd is no less than 77.5 µM.

And the Kd (HLA-A*68:01)?
Its Kd is no less than 77.7 µM.

What about the Kd (HLA-A*31:01 [10]) of the same sequence?
The Kd was no less than 54 µM.

What about the Kd (HLA-A*11:01 [11]) of the same sequence?
The Kd was 2.76 µM.

What about the Kd (HLA-A*02:01 [1]; source organism: Variola virus) of the same sequence?
Its Kd is 0.0007 µM.

Which results are given for IRSCWRYRK?
Kd (HLA-A*01:01; [16]): ≥ 20 µM; Kd (HLA-A*03:01 [3]; [16]): 7.86 µM; Kd (HLA-A*30:01): 0.516 µM; Kd (HLA-B*08:01; [16]): ≥ 20 µM; Kd (HLA-B*58:01; [16]): ≥ 20 µM; Kd (HLA-A*02:01 [4]; [16]): ≥ 20 µM; Kd (HLA-B*15:01; [16]): ≥ 20 µM; Kd (HLA-A*26:01; [16]): ≥ 20 µM; Kd (HLA-A*69:01; [16]): ≥ 20 µM; Kd (HLA-B*07:02 [5]; [16]): ≥ 20 µM; Kd (HLA-B*40:01; [16]): ≥ 20 µM; Kd (HLA-B*73:01; source organism: Vibrio parahaemolyticus AQ3810): 3.88 µM; Kd (HLA-B*44:02; [16]): ≥ 20 µM; Kd (HLA-B*27:05 [2]; [16]): 0.0748 µM; Kd (HLA-A*11:01 [7]; [16]): 2.14 µM

Which Kd (HLA-A*26:03) does the source give for QTWHGDAPY here?
The Kd was 0.277 µM.

With TSYPTAVQF as the sequence, how does the Kd (HLA-C*15:02; source organism: Pseudomonas aeruginosa PACS2) read?
The Kd was 0.106 µM.

For ASDYSQGAF, which Kd (HLA-C*05:01) is on record?
Its Kd is no more than 0.001 µM.

And the Kd (HLA-C*08:02; source organism: human gammaherpesvirus 4)?
The Kd was no more than 0.001 µM.

What does the source list for KRYKQMCTK?
Kd (HLA-B*48:01; [17]): ≥ 20 µM; Kd (HLA-B*73:01; source organism: Listeria monocytogenes serotype 4b str. H7858): ≥ 20 µM; Kd (HLA-B*27:05 [2]; [17]): 0.177 µM

What does the source list for YVTPRALEL?
Kd (HLA-C*08:02; [18]): 0.122 µM; Kd (HLA-C*03:03): ≤ 0.001 µM; Kd (HLA-A*02:12): ≥ 10 µM; Kd (HLA-A*02:01 [1]; [18]): 1.76 µM

Which results are given for QTNLYNLLY?
Kd (HLA-A*02:01 [1]; source organism: Escherichia coli B171): 4 µM; Kd (HLA-B*39:01): ≥ 20 µM; Kd (HLA-B*27:05 [12]): ≥ 20 µM
